The target in experiment [1] is cytoplasmic dynein-1 heavy chain, naturally occurring in Vero cells (African green monkey (endogenous in Vero)). Description: proximity ligation; Vero cells infected with ZIKV MR766 at MOI 1, fixed at 18 h.p.i.; mouse monoclonal anti-E and rabbit polyclonal anti-NTDyn; PLA dots counted in 100 cells.
Experiment [2] has the same target. The experiment can be described thus: proximity ligation; Vero cells infected with ZIKV MR766 at MOI 1, fixed at 12 and 24 h.p.i.; mouse monoclonal anti-E and rabbit polyclonal anti-NTDyn.

“Zika virus (ZIKV) envelope protein (E), MR766 strain (natural protein)”: in experiment [1], the PLA dots per cell (18 h.p.i.) (PLA dots per cell) was above 6 and the PLA dots per cell (mean, 18 h.p.i.) (PLA dots per cell) came to 2.9. Besides, the PLA dots per cell (12 and 24 h.p.i.) (PLA dots per cell) in experiment [2] is below 1.

Source of the values: paper PMC9987375.
